One block for each substance: values may come before it.
Biological target: TGFβ1 (UniProt P01137)
Assay: cell-based or functional assay

Sequence of UniProt P01137 (P01137 279-390 limits assumed): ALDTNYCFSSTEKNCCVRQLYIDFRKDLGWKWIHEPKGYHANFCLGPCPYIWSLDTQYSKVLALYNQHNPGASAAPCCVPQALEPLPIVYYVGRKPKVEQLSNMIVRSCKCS

[3H] thymidine incorporation (CPM) of CCL64 mink lung cells with 0.1 ng/ml TGFβ1, TGFβRII:Fc at 0.02 µg/ml: 57700 CPM | [3H] thymidine incorporation (CPM) of CCL64 mink lung cells with 0.1 ng/ml TGFβ1, TGFβRII:Fc at 0.04 µg/ml: 49900 CPM | [3H] thymidine incorporation (CPM) of CCL64 mink lung cells with 0.1 ng/ml TGFβ1, TGFβRII:Fc at 0.08 µg/ml: 63800 CPM | [3H] thymidine incorporation (CPM) of CCL64 mink lung cells with 0.1 ng/ml TGFβ1, TGFβRII:Fc at 0.16 µg/ml: 75100 CPM | [3H] thymidine incorporation (CPM) of CCL64 mink lung cells with 0.1 ng/ml TGFβ1, TGFβRII:Fc at 0.31 µg/ml: 119000 CPM | [3H] thymidine incorporation (CPM) of CCL64 mink lung cells with 0.1 ng/ml TGFβ1, TGFβRII:Fc at 0.62 µg/ml: 150000 CPM | [3H] thymidine incorporation (CPM) of CCL64 mink lung cells with 0.1 ng/ml TGFβ1, TGFβRII:Fc at 1.25 µg/ml: 168000 CPM | [3H] thymidine incorporation (CPM) of CCL64 mink lung cells with 0.1 ng/ml TGFβ1, TGFβRII:Fc at 2.5 µg/ml: 179000 CPM | [3H] thymidine incorporation (CPM) of CCL64 mink lung cells with 0.1 ng/ml TGFβ1, TGFβRII:Fc at 5 µg/ml: 179000 CPM | [3H] thymidine incorporation (CPM) of CCL64 mink lung cells with 0.1 ng/ml TGFβ1, TGFβRII:Fc at 10 µg/ml: 182000 CPM | amount required to inhibit the anti-proliferative effect of 0.1 ng/ml TGFβ1 by 50%: 0.5 µg/mL
Substance: recombinant rabbit TGFβRII:Fc fusion protein

[3H] thymidine incorporation (CPM) of CCL64 mink lung cells with 0.1 ng/ml TGFβ1, control IgG at 0.02 µg/ml: 43000 CPM | [3H] thymidine incorporation (CPM) of CCL64 mink lung cells with 0.1 ng/ml TGFβ1, control IgG at 0.04 µg/ml: 54400 CPM | [3H] thymidine incorporation (CPM) of CCL64 mink lung cells with 0.1 ng/ml TGFβ1, control IgG at 0.08 µg/ml: 61900 CPM | [3H] thymidine incorporation (CPM) of CCL64 mink lung cells with 0.1 ng/ml TGFβ1, control IgG at 0.16 µg/ml: 52800 CPM | [3H] thymidine incorporation (CPM) of CCL64 mink lung cells with 0.1 ng/ml TGFβ1, control IgG at 0.31 µg/ml: 52400 CPM | [3H] thymidine incorporation (CPM) of CCL64 mink lung cells with 0.1 ng/ml TGFβ1, control IgG at 0.62 µg/ml: 56700 CPM | [3H] thymidine incorporation (CPM) of CCL64 mink lung cells with 0.1 ng/ml TGFβ1, control IgG at 1.25 µg/ml: 51400 CPM | [3H] thymidine incorporation (CPM) of CCL64 mink lung cells with 0.1 ng/ml TGFβ1, control IgG at 2.5 µg/ml: 54400 CPM | [3H] thymidine incorporation (CPM) of CCL64 mink lung cells with 0.1 ng/ml TGFβ1, control IgG at 5 µg/ml: 55100 CPM | [3H] thymidine incorporation (CPM) of CCL64 mink lung cells with 0.1 ng/ml TGFβ1, control IgG at 10 µg/ml: 53600 CPM
Substance: control IgG (antibody)
